Data as given in paper PMC7015052, “Transferrin plays a central role in coagulation balance by interacting with clotting factors” (Cell Research, 2019).
Each block holds one molecule with its values, some of them ahead of it.

How the values were obtained:
apo-transferrin [1] = biological target: T1, apo-transferrin (human, UniProt P02787 20-698); assay: SPR; BIAcore 2000; apo-transferrin or holo-transferrin immobilised on a CM5 chip (~2000 RU); serial concentrations of thrombin, FXIIa, fibrinogen, AT, prothrombin or FXII in Tris–HCl buffer (20 mM, pH 7.4) at 10 μL/min
T1 construct: transferrin (serotransferrin), human, iron-free state; Several paragraphs and legends say only 'transferrin' where the text says apo-transferrin for the same panels; rows told of 'transferrin' alone are tied to this molecule; also called Tf; TRF; source: bought: Sigma (purity greater than 98%)

apo-transferrin [2] = biological target: T1, apo-transferrin; assay: SPR; CM5 chip coupled with 100 RU of transferrin; binding molar ratio from the saturation RU of the flowing phase and the RU of the immobilised phase; settings: for stoichiometry N: both partners purified
human α-thrombin (human) = human α-thrombin (human) (UniProt P00734)
apo-transferrin [3] = biological target: T1, apo-transferrin; assay: SPR; settings: plateau of the association phase, read off a plot
apo-transferrin [4] = biological target: T1, apo-transferrin; assay: SPR; transferrin with synthetic peptides (TH16, FX18, RCL19 and their scrambled controls); settings: both partners purified

Molecule: FXII (natural protein)
Kd (apo-transferrin [1]): 40 nM
koff (apo-transferrin [1]): 0.0012 s⁻¹
kon (apo-transferrin [1]): 30000 M⁻¹ s⁻¹

Molecule: apo-transferrin (from UniProt P02787 20-698) (natural protein)
enhancement of the enzymatic activity of thrombin (chromogenic substrate) by transferrin at 0.2, 1 and 5 μM (human α-thrombin (human)): 1.8 fold
increase of fibrinopeptide A released from fibrinogen by thrombin after 30 min with transferrin at 0.2, 1 and 5 μM (RP-HPLC) (human α-thrombin (human)): 1.2 fold
increase of fibrinopeptide B released from fibrinogen by thrombin after 30 min with transferrin at 0.2, 1 and 5 μM (RP-HPLC) (human α-thrombin (human)): 4.2 fold

B1: fibrinogen (natural protein)
chain 1: ADSGEGDFLAEGGGVRGPRVVERHQSACKDSDWPFCSDEDWNYKCPSGCRMKGLIDEVNQDFTNRINKLKNSLFEYQKNNKDSHSLTTNIMEILRGDFSSANNRDNTYNRVSEDLRSRIEVLKRKVIEKVQHIQLLQKNVRAQLVDMKRLEVDIDIKIRSCRGSCSRALAREVDLKDYEDQQKQLEQVIAKDLLPSRDRQHLPLIKMKPVPDLVPGNFKSQLQKVPPEWKALTDMPQMRMELERPGGNEITRGGSTSYGTGSETESPRNPSSAGSWNSGSSGPGSTGNRNPGSSGTGGTATWKPGSSGPGSTGSWNSGSSGTGSTGNQNPGSPRPGSTGTWNPGSSERGSAGHWTSESSVSGSTGQWHSESGSFRPDSPGSGNARPNNPDWGTFEEVSGNVSPGTRREYHTEKLVTSKGDKELRTGKEKVTSGSTTTTRRSCSKTVTKTVIGPDGHKEVTKEVVTSEDGSDCPEAMDLGTLSGIGTLDGFRHRHPDEAAFFDTASTGKTFPGFFSPMLGEFVSETESRGSESGIFTNTKESSSHHPGIAEFPSRGKSSSYSKQFTSSTSYNRGDSTFESKSYKMADEAGSEADHEGTHSTKRGHAKSRPVRGIHTSPLGKPSLSP
chain 2: QGVNDNEEGFFSARGHRPLDKKREEAPSLRPAPPPISGGGYRARPAKAAATQKKVERKAPDAGGCLHADPDLGVLCPTGCQLQEALLQQERPIRNSVDELNNNVEAVSQTSSSSFQYMYLLKDLWQKRQKQVKDNENVVNEYSSELEKHQLYIDETVNSNIPTNLRVLRSILENLRSKIQKLESDVSAQMEYCRTPCTVSCNIPVVSGKECEEIIRKGGETSEMYLIQPDSSVKPYRVYCDMNTENGGWTVIQNRQDGSVDFGRKWDPYKQGFGNVATNTDGKNYCGLPGEYWLGNDKISQLTRMGPTELLIEMEDWKGDKVKAHYGGFTVQNEANKYQISVNKYRGTAGNALMDGASQLMGENRTMTIHNGMFFSTYDRDNDGWLTSDPRKQCSKEDGGGWWYNRCHAANPNGRYYWGGQYTWDMAKHGTDDGVVWMNWKGSWYSMRKMSMKIRPFFPQQ
chain 3: YVATRDNCCILDERFGSYCPTTCGIADFLSTYQTKVDKDLQSLEDILHQVENKTSEVKQLIKAIQLTYNPDESSKPNMIDAATLKSRKMLEEIMKYEASILTHDSSIRYLQEIYNSNNQKIVNLKEKVAQLEAQCQEPCKDTVQIHDITGKDCQDIANKGAKQSGLYFIKPLKANQQFLVYCEIDGSGNGWTVFQKRLDGSVDFKKNWIQYKEGFGHLSPTGTTEFWLGNEKIHLISTQSAIPYALRVELEDWNGRTSTADYAMFKVGPEADKYRLTYAYFAGGDAGDAFDGFDFGDDPSDKFFTSHNGMQFSTWDNDNDKFEGNCAEQDGSGWWMNKCHAGHLNGVYYQGGTYSKASTPNGYDNGIIWATWKTRWYSMKKTTMKIIPFNRLTIGEGQQHHLGGAKQAGDV
notes: fibrinogen alpha chain; fibrinogen beta chain; fibrinogen gamma chain; the SPR and native gel methods say only 'fibrinogen'; also called factor I; source: bought: Cayman (16088); copies: + +
stoichiometry N (apo-transferrin [2]): 4 apo-transferrin per fibrinogen (molar ratio)

Molecule: RRNHSCEPCQTLAVRSYR (source: synthetic peptide) [FX18]
Kd (apo-transferrin [4]): 143 nM
koff (apo-transferrin [4]): 0.0004 s⁻¹
kon (apo-transferrin [4]): 2800 M⁻¹ s⁻¹

Molecule: RIGKHSRTRYERNIEK (source: synthetic peptide) [TH16]
Kd (apo-transferrin [4]): 97 nM
koff (apo-transferrin [4]): 0.0003 s⁻¹
kon (apo-transferrin [4]): 3100 M⁻¹ s⁻¹

B2: RCL19 (peptide)
peptide: EAAASTAVVIAGRSLNPNR
notes: from the reactive center loop (RCL) of antithrombin; also called synthetic peptide from the RCL of AT; source: synthetic peptide
Kd (apo-transferrin [4]): 556 nM
koff (apo-transferrin [4]): 0.001 s⁻¹
kon (apo-transferrin [4]): 1800 M⁻¹ s⁻¹

Next, values leading:

Kd (apo-transferrin [1]): 7.7 nM
stoichiometry N (transferrin per thrombin (molar ratio)) (apo-transferrin [2]): 1
Molecule: human α-thrombin (from UniProt P00734 364-622) (enzyme)

response (apo-transferrin [3]; 25 nM trace, parent: est. 9): 2.5 RU
response (apo-transferrin [3]; 50 nM trace, parent: est. 14): 5.5 RU
Molecule: wild-type thrombin (from UniProt P00734) R117A; R122A

Kd (apo-transferrin [1]; both partners purified): 13.9 nM
koff (apo-transferrin [1]; both partners purified): 0.0025 s⁻¹
kon (apo-transferrin [1]; both partners purified): 180000 M⁻¹ s⁻¹
stoichiometry N (apo-transferrin [2]): 1 transferrin per FXIIa (molar ratio)
B3: human α-FXIIa (enzyme)
chain 1: IPPWEAPKEHKYKAEEHTVVLTVTGEPCHFPFQYHRQLYHKCTHKGRPGPQPWCATTPNFDQDQRWGYCLEPKKVKDHCSKHSPCQKGGTCVNMPSGPHCLCPQHLTGNHCQKEKCFEPQLLRFFHKNEIWYRTEQAAVARCQCKGPDAHCQRLASQACRTNPCLHGGRCLEVEGHRLCHCPVGYTGAFCDVDTKASCYDGRGLSYRGLARTTLSGAPCQPWASEATYRNVTAEQARNWGLGGHAFCRNPDNDIRPWCFVLNRDRLSWEYCDLAQCQTPTQAAPPTPVSPRLHVPLMPAQPAPPKPQPTTRTPPQSQTPGALPAKREQPPSLTRNGPLSCGQRLRKSLSSMTR
chain 2: VVGGLVALRGAHPYIAALYWGHSFCAGSLIAPCWVLTAAHCLQDRPAPEDLTVVLGQERRNHSCEPCQTLAVRSYRLHEAFSPVSYQHDLALLRLQEDADGSCALLSPYVQPVCLPSGAARPSETTLCQVAGWGHQFEGAEEYASFLQEAQVPFLSLERCSAPDVHGSSILPGMLCAGFLEGGTDACQGDSGGPLVCEDQAAERRLTLQGIISWGSGCGDRNKPGVYTDVAYYLAWIREHTVS
notes: factor XIIa heavy chain, cut product of human factor XII; factor XIIa light chain (protease domain), cut product of human factor XII; also called factor XIIa; source: bought: Enzyme Research Laboratories (HFXIIa 1212a)
